Measurements as given in patent publication US6342220 (Genentech, dated 2002).

Biological target: T1, mpl-Ig (human, UniProt P40238 26-491, limits assumed)
T1 construct: From conditioned media of mpl-Ig-transfected 293 cells; also called mpl-IgG; not shown: human IgG Fc (the fusion is captured with rabbit anti-human IgG Fc)
T1 sequence (looked up): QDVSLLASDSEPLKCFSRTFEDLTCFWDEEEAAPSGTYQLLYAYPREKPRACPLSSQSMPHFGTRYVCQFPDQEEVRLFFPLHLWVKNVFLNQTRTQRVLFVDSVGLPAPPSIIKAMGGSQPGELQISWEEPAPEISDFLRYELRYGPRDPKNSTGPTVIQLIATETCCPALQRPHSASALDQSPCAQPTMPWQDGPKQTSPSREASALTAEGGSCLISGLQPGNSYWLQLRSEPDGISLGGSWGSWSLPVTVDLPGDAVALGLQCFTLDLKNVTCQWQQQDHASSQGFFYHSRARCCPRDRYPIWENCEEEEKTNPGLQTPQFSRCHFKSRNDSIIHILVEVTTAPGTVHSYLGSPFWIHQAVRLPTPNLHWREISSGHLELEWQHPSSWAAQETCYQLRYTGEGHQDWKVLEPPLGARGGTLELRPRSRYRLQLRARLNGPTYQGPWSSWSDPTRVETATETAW
Experiment: competition ELISA, biotinylated TPO on captured mpl-Ig

B1: 12E10 Fab′2 (other)
VH: QVQLQQSGPGLVKPSETLSLTCTVSGDSISSYYWSWIRQPPGKGLEWIGYIYYSGSTNYNPSLKSRVTISVDTSKSQFSLKLSSVTAADTAVYYCARGRYFDVWGRGTMVTVSS
VL: SYVLTQPPSVSGSPGQSITISCTGTSSDVGGYNYVSWYQQHPGKAPKLMIYEGSKRPSGVSNRFSGSKSGNTASLTISGLQAEDEADYYCSSYTTRSTRVFGGGTKLTVL
notes: F(ab′)2 with leucine zipper; A lambda version of the Fab′2 vector is not described; copies: 2 + 2
How did the IC50 turn out when B1 was run?
The IC50 was 0.64 nM.
